This is an account of results in paper PMC5651189.

For this assay, the target named is PKA regulatory subunit RIα/β (human (endogenous in SK-Br-3)) (UniProt P10644). In words: proximity ligation.
PKA regulatory subunit RIα/β (human (endogenous in SK-Br-3)), sequence (P10644 whole entry): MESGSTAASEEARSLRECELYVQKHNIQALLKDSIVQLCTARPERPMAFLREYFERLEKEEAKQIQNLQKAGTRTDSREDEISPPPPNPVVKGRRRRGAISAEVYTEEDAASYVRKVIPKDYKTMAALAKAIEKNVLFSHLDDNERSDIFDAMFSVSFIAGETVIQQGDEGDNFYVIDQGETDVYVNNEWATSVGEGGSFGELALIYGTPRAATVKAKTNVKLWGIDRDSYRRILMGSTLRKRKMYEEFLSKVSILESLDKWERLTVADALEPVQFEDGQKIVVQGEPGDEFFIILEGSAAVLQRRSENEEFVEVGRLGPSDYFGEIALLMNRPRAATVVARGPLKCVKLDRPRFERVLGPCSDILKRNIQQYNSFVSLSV

B1: t-Darpp T39A phosphorylation mutant (natural protein)
chain: AYAPPSLKAVQRIAESHLQSISNLNENQASEEEDELGELRELGYPREEDEEEEEDDEEEEEEEDSQAEVLKVIRQSAGQKTTCGQGLEGPWERPPPLDESERDGGSEDQVEDPALSEPGEEPQRPSPSEPGT
As to B1, the fold CICF in SK.tDp^T39A against SK.empty cells was determined as 3 fold.

B2: Darpp-32 (dopamine- and cAMP-regulated phosphoprotein of 32 kDa) (natural protein)
chain: MDPKDRKKIQFSVPAPPSQLDPRQVEMIRRRRPTPAMLFRLSEHSSPEEEASPHQRASGEGHHLKSKRPNPCAYTPPSLKAVQRIAESHLQSISNLNENQASEEEDELGELRELGYPREEDEEEEEDDEEEEEEEDSQAEVLKVIRQSAGQKTTCGQGLEGPWERPPPLDESERDGGSEDQVEDPALSEPGEEPQRPSPSEPGT
The molecule B2 displayed a fold CICF in SK.dDp against SK.empty and SK.tDp cells of 4 fold.
